Assay results: patent US20240181067A1, “TARGETED BIFUNCTIONAL DEGRADERS AND METHODS USING SAME” (YALE UNIVERSITY, priority 2021, published 2024)

Target: streptavidin AF488 (Streptomyces avidinii, UniProt P22629)
Assay: Degradation of a target protein using an LRP1 binding motif
Format: cell-based
Settings: FIG. 12
Source text: Some studies have been done on other bifunctional molecules comprising an LRP1 binding motif depicted in FIG. 2 and a biotin Target binding motif, wherein these bifunctional molecules also noncovalently bind streptavidin (FIG. 11).

Sequence of streptavidin AF488 (P22629 25-183): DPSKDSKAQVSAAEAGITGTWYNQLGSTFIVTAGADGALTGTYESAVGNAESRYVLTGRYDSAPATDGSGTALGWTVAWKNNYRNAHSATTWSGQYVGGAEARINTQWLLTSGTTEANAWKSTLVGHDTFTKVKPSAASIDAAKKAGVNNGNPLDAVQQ

Ac.Ac.Biotin Angiopep-2: "the Ac.Ac.Biotin Angiopep-2 mediated degradation of streptavidin AF488"
degradation of streptavidin AF488: mediated degradation of streptavidin AF488
